Laboratory results as given in the supplement of paper PMC12042874.
± gives the uncertainty stated by the source.

Experiment: amyloid nucleation score (Sup35N fusion, yeast selection) (log enrichment); library NNK2; higher = more nucleation; inactive = no reads after selection
In short: (§1)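 Sup35N fusions to peptides of 20 random codons were expressed in psi-negative yeast, induced 24 hours with 100 μM copper sulfate, and grown 7 days at 30°C on medium lacking adenine and uracil. Input and output plasmid inserts were sequenced by Illumina. The nucleation score is the DiMSum log enrichment of output over input reads, centred on the mode score of non-aggregating sequences. Sequences with under 100 input reads were excluded.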

Substance	amyloid nucleation score
YVWIQTLYALWYFSLRFAGL	-0.413 ± 0.49
YWFQKLEGSRHDMV	-0.121 ± 1.1
YWFVGTPCAVRVGWFSQPHR	0.612 ± 0.45
YWGSFGDKLKLLNMCPLSLD	inactive
YWIRIRIQCFQGSIEQDTER	4.96 ± 0.066
YWLVRMVHGRAWPIFEENCQ	-0.01 ± 1
YWNDSSRYGQVGVEYC	0.49 ± 0.8
YWSYSLGGSQEYSGHTMA	-0.135 ± 0.35
YYACNKAND	-0.607 ± 1
YYDLRAATESDVRHGTADHR	0.195 ± 0.37
YYGLVQRLFSCVCYYVLTF	inactive
YYGNFHLMSWVWSIGPCSIY	4.88 ± 0.11
YYGSGNPSQGVVSEWLVRDA	0.571 ± 0.36
YYLSFCVSNAGAPGMDLMGQ	0.328 ± 0.65
YYMTRVSPFQSFIVIMGASQ	1.89 ± 0.24
YYNSATPTDDGWWKISG	-0.574 ± 1
YYWGAGTQHGYLFTFVGGND	-0.326 ± 1

Experiment: amyloid nucleation score (Sup35N fusion, yeast selection) (log enrichment); library NNK1; higher = more nucleation; inactive = no reads after selection
In short: as §1

Substance	amyloid nucleation score
AALTCLCCWAFFVISKNNYQ	0.995 ± 0.58
AATGRTVCESREWGKVLAVC	-0.459 ± 0.38
AAVRALLYRCVVHVRFFFKE	1.06 ± 0.54
AAWDLVVGQ	-0.473 ± 0.32
AAWMWWTLLSTY	-0.377 ± 0.37
ACFWYTL	0.024 ± 0.47
ACNTSSIYALTFVCHLSVGV	4.67 ± 0.057
ACVMRIDAFFMTISVRLLRL	1.79 ± 0.3
ADFFESEQVHYKSELAKNHG	0.049 ± 0.69
ADFKEFECDLARPLLGIKFL	0.054 ± 0.91
ADNFIGVVYTMLVRRYMPNS	-1.65 ± 1.2
ADYTQCRLYVM	-0.132 ± 0.21
AELVQFSCLKLSFKSSENPS	3.06 ± 0.21
AESWHVGKS	-0.593 ± 0.59
AEYNVGLLSCSNDSLWDQWS	inactive
AFALHSHFLSL	1.75 ± 0.19
AFAVTASAITTVPPYREFVG	-0.545 ± 0.82
AFDIVDRSRYILY	0.58 ± 0.6
AFLGYNKIVGLNLAVLNTVG	inactive
AFLKLSTRWWKPVIFYKCDL	-0.932 ± 1.1
AFLLEMKTKAATPRCYLRDM	0.532 ± 0.85
AFMGPWEPFLVHFTRRPSPY	-0.856 ± 2.4
AFPQFLGCLVIFQSHGRRER	8.1 ± 0.064

Substance	amyloid nucleation score
AFPSVRSAFSYLVVPCTICT	0.606 ± 0.53
AFQESRGQSNWYIYMLVHTS	1.11 ± 0.54
AFSSLTC	-0.087 ± 1
AFVLDIYMGMRSRYNDAPS	1.78 ± 0.31
AFYSEMGFSDVYILLVYSMM	4.45 ± 0.073
AGDLGPREQGR	0.171 ± 1.2
AGDTMAVWLPHQKRGGCFEM	-0.815 ± 1.2
AGVAPYWVPTSEQDQLRRGT	-0.721 ± 1.9
AGYCVCLYMLEYSGTFGYSH	1.63 ± 0.19
AHIISIKYLGSIFNKRRRFA	0.874 ± 0.66
AIAGSAMVEGAH	0.985 ± 0.77
AIDSVNMTTLRWM	0.292 ± 0.62
AILVGMFYAKTVGGQYRVHG	0.369 ± 0.61
AIVSGRTFDKPNMKRCL	-1.44 ± 0.69
AKEVLYFR	0.505 ± 0.24
AKKWNSSMAKCNFNCLKSVW	-2.05 ± 2.7
AKMYLRTLYTSPLRLPLAPQ	-0.333 ± 1.4
AKSREWGDIARFSHPPALRA	-0.147 ± 0.4
ALCYPLMDSRSSRSYVQTRR	2.61 ± 0.12
ALIFYRFLL	0.863 ± 0.41
ALILTVIDHVSAHYYVAEDV	5.59 ± 0.081
ALLPKFCDIKFVVEKNGENR	0.181 ± 1.4
ALNYSRGMTMVGVCLPHKLT	-0.147 ± 0.3

Substance	amyloid nucleation score
ALPHSKFKAMVFRSLWRDRG	0.51 ± 1.2
ALRAHHSL	0.498 ± 0.56
ALRRIGSFVVHLDIRAVSQT	1.09 ± 0.5
ALSSAALEYNIPVGSGAFVN	0.25 ± 1.4
ALSSVNFFQLL	4.45 ± 0.12
ALVALRAY	0.364 ± 1.2
ALVFSALLVFRCGDCAASKA	4.25 ± 0.062
AMKLVPLNLYFKDNKNQSSC	-0.033 ± 0.31
AMWYMKCNTYKVWLGDMYLV	0.193 ± 0.18
ANFGFWFAFYSAARSDRTSL	-0.421 ± 1.2
ANGLMGSWSLEARSFRSDVL	-0.179 ± 1.5
ANTPRFMNTLV	-0.824 ± 0.51
ANWFL	0.479 ± 0.45
APGDWLLSDASAAVGEMVE	0.778 ± 0.81
APQFTKGFSEFGDLGAMRRA	0.196 ± 0.67
AQNSWGGILSVTAGQEFYCL	-0.674 ± 1.7
AQQGIYCRCTVCGQ	1.41 ± 0.28
ARERGCRSAH	0.332 ± 0.42
ARFMLAWEVNCQG	1.39 ± 0.22
ARSFETLLTTSRGGKVDWLT	-0.272 ± 0.24
ARYRYVTVYQV	-0.725 ± 0.35
